Experimental data: patent publication US5985278A (Merck Patent Gesellschaft mit Beschrankter Haftung, priority 1994, dated 1999)
Where “and” joins values, the source holds several entries; their conditions need not be identical. Equal values may be shown once.

Columns and labels:
[1] = in vivo; cited from earlier work
[2] = target: T1, αvβ3 (Homo sapiens, UniProt P05106+P06756); assay: Direct competition assay, vitronectin binding to isolated αvβ3; settings: isolated receptor
T1 construct: αVβ3 was purified from human placenta; from tissue; host or cells: human term placenta
T1 sequence (P06756 31-889 limits assumed): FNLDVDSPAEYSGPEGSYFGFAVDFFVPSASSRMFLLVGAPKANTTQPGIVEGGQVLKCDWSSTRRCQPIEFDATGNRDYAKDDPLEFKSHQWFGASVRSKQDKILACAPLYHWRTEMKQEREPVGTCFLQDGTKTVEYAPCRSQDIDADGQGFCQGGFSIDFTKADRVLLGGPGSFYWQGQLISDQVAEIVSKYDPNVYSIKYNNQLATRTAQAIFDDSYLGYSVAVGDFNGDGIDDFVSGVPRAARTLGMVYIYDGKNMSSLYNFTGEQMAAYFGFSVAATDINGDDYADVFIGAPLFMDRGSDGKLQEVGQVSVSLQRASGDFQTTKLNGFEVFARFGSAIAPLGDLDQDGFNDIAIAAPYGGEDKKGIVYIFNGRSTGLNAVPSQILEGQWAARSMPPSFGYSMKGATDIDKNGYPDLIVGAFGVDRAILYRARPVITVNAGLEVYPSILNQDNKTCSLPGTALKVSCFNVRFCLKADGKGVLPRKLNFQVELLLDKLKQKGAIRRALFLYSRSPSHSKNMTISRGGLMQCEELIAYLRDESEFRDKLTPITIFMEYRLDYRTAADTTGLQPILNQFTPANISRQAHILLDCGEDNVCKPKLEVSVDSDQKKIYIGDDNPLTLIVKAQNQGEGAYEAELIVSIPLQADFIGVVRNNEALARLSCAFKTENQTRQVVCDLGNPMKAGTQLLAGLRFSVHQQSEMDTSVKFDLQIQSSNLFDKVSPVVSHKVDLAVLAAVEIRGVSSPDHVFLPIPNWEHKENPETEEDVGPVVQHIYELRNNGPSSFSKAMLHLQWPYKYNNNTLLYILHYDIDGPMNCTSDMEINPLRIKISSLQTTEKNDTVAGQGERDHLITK
T1 sequence (P06756 891-1048 limits assumed): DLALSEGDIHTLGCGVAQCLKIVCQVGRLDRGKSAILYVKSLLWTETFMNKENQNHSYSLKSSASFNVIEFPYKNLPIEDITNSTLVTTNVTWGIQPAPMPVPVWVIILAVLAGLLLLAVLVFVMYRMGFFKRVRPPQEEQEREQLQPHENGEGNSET
T1 sequence (P05106 27-788): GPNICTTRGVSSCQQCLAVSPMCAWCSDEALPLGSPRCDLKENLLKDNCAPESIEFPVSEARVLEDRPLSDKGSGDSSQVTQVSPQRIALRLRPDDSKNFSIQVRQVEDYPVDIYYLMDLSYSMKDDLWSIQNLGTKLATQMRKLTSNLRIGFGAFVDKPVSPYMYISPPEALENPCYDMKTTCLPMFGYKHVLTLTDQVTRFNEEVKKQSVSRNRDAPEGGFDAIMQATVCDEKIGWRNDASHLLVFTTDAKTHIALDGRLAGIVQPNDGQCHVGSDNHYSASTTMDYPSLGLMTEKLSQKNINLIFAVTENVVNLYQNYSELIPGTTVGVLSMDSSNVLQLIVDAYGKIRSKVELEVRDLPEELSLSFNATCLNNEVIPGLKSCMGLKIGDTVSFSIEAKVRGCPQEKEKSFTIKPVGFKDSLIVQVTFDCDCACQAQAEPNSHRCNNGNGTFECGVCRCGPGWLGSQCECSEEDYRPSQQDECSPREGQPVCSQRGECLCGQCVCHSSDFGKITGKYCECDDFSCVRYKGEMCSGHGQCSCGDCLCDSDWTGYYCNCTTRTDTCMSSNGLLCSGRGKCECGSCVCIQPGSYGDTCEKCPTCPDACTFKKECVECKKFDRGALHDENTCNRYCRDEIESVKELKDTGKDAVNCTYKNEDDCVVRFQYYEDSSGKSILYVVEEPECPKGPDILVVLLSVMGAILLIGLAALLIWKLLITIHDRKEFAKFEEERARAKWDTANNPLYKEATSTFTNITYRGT
Protocol: The plate was washed once with buffer B (3% BSA (w/v), 100 mM NaCl, 1 mM MgCl2, 1 mM CaCl2, 10 mM MnCl2, 50 mM Tris-HCl; pH 7.4) and incubated 2 h at 20° C. in the same buffer.
After rinsing with buffer C (buffer B with BSA at 0.1% (w/v)) was added containing biotinylated ligand (1 μg ml^-1 end concentration) and serially diluted test peptides or proteins. After incubation (3 h, 30° C.), unbound ligand was washed from the plate by 3 rinses with buffer C, and incubation continued for 1 h with anti-biotin-alkaline phosphatase-conjugated antibody (1:10000 in buffer C) (Sigma) followed by PBS wash and detection of bound antibody with NBT-BCIP (Biorad) as substrate. ECM molecules and antibodies were routinely biotinylated and used in such an assay configuration.
Assays were routinely performed in triplicate or quadruplicate, and repeated at least 3 times to derive an IC50 from an unweighted sigmoid curve fit. Results were normalized against external control peptides to allow intra-assay comparison.

[3] = test system: M21-L, M21-L4 and M21-L-IIb cells; assay: DNA synthesis ([3H]-thymidine incorporation) in M21 variant lines; format: cell-based, human; settings: M21-L and M21-LGpIIb, FIG. 9 B, D
Protocol: (§1) Adherent melanoma cells were detached (0.05% Trypsin/0.02% EDTA). Washed cells were seeded into 96-well flat-bottom microtest plates (1×10^4 cells per well) and cultured without (control) or in the presence of serially diluted antibodies in RPMI medium with 10% FCS. After 48 h, cells were pulse labelled for 18 h (18.5 kBeq [^3 H]-thymidine per well) and harvested. Incorporated radioactivity was measured and expressed as counts per minute.

[4] = test system: purified αvβ3; assay: ELISA on purified αvβ3; format: binding, human
[5] = test system: M21 cells; assay: Flow cytometry (FACS) on M21; format: binding, human
Protocol: (§2) Cells were harvested with EDTA, washed, and 10^6 cells in PBS-1% BSA were incubated with MAb (10 μg ml^-1; 20 min, 4° C.). After washing and labelling (20 min, 4° C.) with goat anti-mouse Ig-FITC (Becton Dickinson), cells were incubated with propidium iodide before flow cytometry analysis (EPICS Profile II, Coulter). Living cells were selected by appropriate gates on the side and forward scatter. Fluorescein was excited at 488 nm with an argon ion laser and the emitted fluorescence (525 nm) was recorded. In some experiments, M21-L cells were stained following a brief fixation and permeabilization step (70% ethanol; 5 min×-20° C.).

[6] = test system: M21-L cells; assay: Flow cytometry (FACS) on M21-L; format: binding, human; settings: relative to secondary antibody only
Protocol: as §2

[7] = test system: M21-L-IIb cells; assay: Flow cytometry (FACS) on M21-L-IIb; format: binding, human; settings: relative to secondary antibody only
Protocol: as §2

[8] = test system: M21-L4 cells; assay: Flow cytometry (FACS) on M21-L4; format: binding, human; settings: relative to secondary antibody only
Protocol: as §2

[9] = test system: M21-L12 cells; assay: Flow cytometry (FACS) on M21-L12; format: binding, human; settings: relative to secondary antibody only
Protocol: as §2

[10] = test system: UCLA-P3 cells; assay: Flow cytometry (FACS) on UCLA-P3; format: binding, human; settings: relative to secondary antibody only
Protocol: as §2

[11] = test system: WM793 cells; assay: Flow cytometry (FACS) on WM793; format: binding, human; settings: relative to secondary antibody only
Protocol: as §2

[12] = test system: B16F10 cells; assay: Flow cytometry (FACS) on B16F10; format: binding; settings: murine cell
Protocol: as §2

[13] = test system: human melanoma and carcinoma cell lines; assay: αV-mediated cell attachment to vitronectin, cell line panel; format: cell-based
Protocol: (§3) Cell Attachment Assays were as previously described (Goodman et al., 1991), using hexosaminidase activity (Landegren, 1984) to detect attached cells. Dilutions and cell suspensions were in attachment buffer (RPMI, 1% BSA, 25 mM HEPES; pH 7.4). Matrix proteins were coated onto 96- or 48-well plates, the wells were blocked with BSA and serially diluted MAbs were added to the wells followed by cells (2.5×10^4 -5×10^4). After 1 h at 37° C., non-adherent cells were washed away and attached cells counted against a standard curve run in parallel. Inhibition of attachment was calculated by using wells with no MAbs as reference. Typically, over 70% of added cells had attached to vitronectin at 1 h. Cell attachment to wells coated with BSA alone was routinely less than 5% of specifically attached cells.

[14] = test system: M21 cells; assay: M21 cell attachment to vitronectin; format: cell-based, human; settings: maximal block
Protocol: as §3

[15] = test system: αvβ5 (UCLA-P3 cells); assay: Cell attachment to vitronectin mediated by αvβ5 (UCLA-P3 cells); format: cell-based, human
Protocol: as §3

[16] = test system: WM793 cells; assay: WM793 cell attachment to vitronectin; format: cell-based, human; settings: FIG. 4e,f
Protocol: as §3

[17] = test system: αvβ1 (V+B2 cells); assay: Cell attachment to vitronectin mediated by αvβ1 (V+B2 cells); format: cell-based; settings: FIG. 11
Protocol: as §3

[18] = test system: αvβ3 (WM164 and M21 cells); assay: Cell attachment to vitronectin mediated by αvβ3 (WM164 and M21 cells); format: cell-based, human; settings: FIG. 11
Protocol: as §3

[19] = test system: B16F10 cells; assay: B16F10 cell attachment to vitronectin; format: cell-based; settings: murine cell
Protocol: as §3

[20] = test system: M21 cells; assay: M21 cell attachment to laminin and collagen; format: cell-based, human; settings: M21, FIG. 5
Protocol: as §3

[21] = test system: M21 tumors; assay: Subcutaneous M21 tumor development in nude mice; format: in vivo, BALB/c nu/nu mice
Protocol: (§4) Tumor cells in exponential growth were harvested with EDTA, washed and examined for viability by trypan blue dye exclusion. Viability was between 96-99%. For primary tumor growth, cells (0.5×10^6 cells in 0.2 ml PBS++) were injected subcutaneously into the flanks of nude mice. Tumor growth was followed by measuring tumor diameters with callipers and the tumor volume was calculated using an approximated formula for a prolate ellipsoid: […]
(§5) where a is the longest axis of the tumor and b the shortest. A minimum of eight animals was used per group.
(§6) For experimental lung metastasis, cells were harvested (0.05% Trypsin/0.02%EDTA) and were injected into the tail vein of nude mice (0.5×10^6 cells in 0.2 ml PBS++). 7 weeks later the animals were sacrificed, the lungs removed and fixed in a Bouins' solution, and the tumor foci on the surface of the lungs counted. For antibody treatment, harvested and washed cells were incubated with purified endotoxin free MAbs (70 μg per 10^6 cells 0.5 ml PBS++) for 30 min at 20° C. in an end-over-end rotator before dilution to 0.5×10^6 cells in 0.2 ml PBS and injection. Cells viability was assessed by Trypan blue dye exclusion before and after completing the injection schedule, where no significant difference was found (viability pre-injection=viability post injection ±5%). The tumor inhibition data was assessed using the 2-tailed Student T-test.

[22] = test system: M21-L; assay: Subcutaneous M21-L tumor development in nude mice; format: in vivo, BALB/c nu/nu mice; settings: FIG. 7b
Protocol: as §4, §5, §6

[23] = test system: M21 tumor foci; assay: Lung colonization experimental metastasis assay; format: in vivo, BALB/C nu/nu mice
Protocol: as §6

[24] = test system: M21 cells; assay: M21 cell proliferation assay; format: cell-based, human; set-up: dose or concentration left out as unconfirmed; settings: M21, antibody (FIG. 8a)
Protocol: […] Growth and viability were estimated by Trypan blue dye exclusion. Activation was measured by the MTT assay as described above, and cell numbers were counted daily using a cell counter (Coulter electronics).

[25] = test system: M21 cells; assay: Antibody-directed cellular cytotoxicity (ADCC) with BALB/c microglia; format: cell-based, human; settings: up to 10^-7 M, murine microglia effector cells
Protocol: Preparation of BALB/C microglial cells and conditions for ADCC and antibody-effector cell mediated cytostasis (AECM) were essentially as described (Sutter et al., 1991). M21 cells were pulsed for 18 h with ^3 H-thymidine (18 kBq per 4×10^3 cells per well) and incubated on 96-well plates with BALB/C microglia (5×10^4 cells per well) in 200 μl DMEM/FCS (10%) in the presence of antibodies. After 48 hrs, [^3 H] label retained in the nuclear compartment of target cells was measured. MAb dependent cytotoxicity was calculated using the formula: [(experimental ccpm-spontaneous ccpm)/(maximum ccpm-spontaneous ccpm)]×100.

[26] = test system: M21 cells; assay: DNA synthesis ([3H]-thymidine incorporation) in M21; format: cell-based, human; set-up: dose or concentration left out as unconfirmed
Protocol: as §1

[27] = test system: M21 cells; assay: Complement dependent cytotoxicity (CDC); format: cell-based, human; settings: not shown
Protocol: M21 cells (10,000) were plated in a 96-well plate with 50 μl of complete medium and 20 μl of antibodies. Rabbit serum (50 μl, 1:5; Behring) was added as source of complement and plate was incubated (37° C.; 60 min). Lysis was quantified by MTT technique (Mosmann, 1983). Percent of lysis was calculated using wells with 1% Tween-20 as 100% lysed controls, and without antibody as 0% lysed control.

Molecule: RGDS: RGD-peptide (SEQ ID NO:6)
- serum half-life [1]: 8 min

Molecule: GRGDSPK [Gly-Arg-Gly-Asp-Ser-Pro-Lys]
- IC50 [2]: ~2000 nM

Molecule: CC(=O)O[C@H]1C(=O)[C@@]2(C)[C@H]([C@H](OC(=O)c3ccccc3)[C@]3(O)C[C@H](OC(=O)[C@H](O)[C@@H](NC(=O)c4ccccc4)c4ccccc4)C(C)=C1C3(C)C)[C@]1(OC(C)=O)CO[C@@H]1C[C@@H]2O [Taxol]
- DNA synthesis, positive control [3]: completely suppresses

B1: 17E6: murine IgG1 monoclonal antibody against human αv-integrin chain, from hybridoma 272-17E6 (DSM ACC2160) (antibody, V domains shown)
VH: QVQLQQSGAELAEPGASVKMSCKASGYTFSSFWMHWVKQRPGQGLEWIGYINPRSGYTECNEIFRDKATMTADTSSSTAYMQLSGLTSEDSAVYYCASFLGRGAMDYWGQGTSVTVSS
VL: DIQMTQTTSSLSASLGDRVIISCRASQDISNYLSWYQQKPDGTVKLLIFYTSKLHSGVPSRFSGSGSGTDYSLTISNLDQEDIATYFCQQGNTFPYTFGGGTKVEMR
- 50% saturation in ELISA on isolated αvβ3 ([4]; FIG. 10): ~ 1 ng ml^-1
- 50% binding to αvβ3 in ELISA ([4]; screening ELISA): 10 to 20 ng/mL
- EC50 ([4]; screening ELISA, read-out: 50% binding to αvβ3 in ELISA): 0.05 to 0.1 nM
- Reactivity in flow cytometry, M21 (αvβ3; αvβ5) ([5]; relative to secondary antibody only, MAb 10 μg ml^-1): ++ (4-9 (++))
- FACS reaction with M21 ([5]; αv-expressing line): strongly
- Reactivity in flow cytometry, M21-L [6]: - (1-2 (-))
- Reactivity in flow cytometry, M21-L-llb (αllbβ3) [7]: - (1-2 (-))
- Reactivity in flow cytometry, M21-L4 [8]: ++ (4-9 (++))
- Reactivity in flow cytometry, M21-L12 [9]: - (1-2 (-))
- Reactivity in flow cytometry, UCLA-P3 (αvβ5) [10]: +++ (>9 (+++))
- Reactivity in flow cytometry, WM793 (αvβ3; αvβ5) [11]: +++ (>9 (+++))
- FACS reaction with B16F10 [12]: did not react
- IC50 in cellular assay [13]: ~ 100 ng ml^-1
- IC50 ([13]; antibody MW 150,000, read-out: IC50, αV-mediated cell attachment): 0.3 to 1 nM
- initial attachment to vitronectin of cells reacting in FACS with 17E6 ([13]; hybridoma supernatants, FIG. 3): strongly blocked
- block of M21 initial attachment to vitronectin [14]: ~ 85% and ~ 90%
- IC50, attachment to vitronectin on αvβ5 (UCLAP3) ([15]; FIG. 4c,d): ~ 30 ng ml^-1
- IC50, cell attachment mediated by αvβ5 (UCLA-P3 cells) ([15]; vitronectin, FIG. 11): ~ 0.1 μg ml^-1
- IC50, WM793 attachment to vitronectin [16]: ~ 60 ng ml^-1
- IC50, cell attachment mediated by αvβ1 (V+B2 cells) [17]: ~ 0.1 μg ml^-1
- IC50, αvβ3 attachment (WM164 and M21 cells) [18]: ~ 0.5 μg ml^-1
- B16F10 attachment on vitronectin [19]: not affected
- cell attachment to other matrix substrates (laminin, collagen) [20]: lack of effect
- tumors and metastases at sacrifice ([21]; 6 months, lungs, liver, kidney, spleen, colon, stomach, body cavities): neither subcutaneous tumors nor metastases
- tumors taken in the presence of antibody ([21]; M21 cells subcutaneously co-injected with antibody): 0/32
- experiments in which subcutaneous development of M21 tumors was blocked ([21]; mouse, in vivo): 4/4
- time animals remain tumor free ([21]; mouse, in vivo): > 6 months
- subcutaneous M21-L growth / take [22]: unaffected
- Tumor Take ([23]; 7 weeks after tail vein injection): 78
- Number of Tumor Foci, Mean ± SEM ([23]; lung surface, 7 weeks): 8 ± 7.7
- Number of Tumor Foci, Median ([23]; lung surface, 7 weeks): 5
- reduction of numbers of tumor colonies ([23]; pre-incubation of M21 with antibody, tail-vein injection): 90%
- % Control ([23]; tumor foci relative to M21 control): 9%
- kinetic of cell growth and saturation density [24]: not greatly influenced
- ADCC against M21 [25]: did not mediate ADCC
- thymidine incorporation in M21 cells [26]: no effect
- complement mediated lysis on M21 cells [27]: did not affect
